Assay results from IntAct's records for PubMed 12529400.

B1: Homeodomain-interacting protein kinase 1 (Mus musculus), O88904 (parent)
chain: MASQLQVFSPPSVSSSAFCSAKKLKIEPSGWDVSGQSSNDKYYTHSKTLPATQGQASSSHQVANFNLPAYDQGLLLPAPAVEHIVVTAADSSGSAATATFQSSQTLTHRSNVSLLEPYQKCGLKRKSEEVESNGSVQIIEEHPPLMLQNRTVVGAAATTTTVTTKSSSSSGEGDYQLVQHEILCSMTNSYEVLEFLGRGTFGQVAKCWKRSTKEIVAIKILKNHPSYARQGQIEVSILSRLSSENADEYNFVRSYECFQHKNHTCLVFEMLEQNLYDFLKQNKFSPLPLKYIRPILQQVATALMKLKSLGLIHADLKPENIMLVDPVRQPYRVKVIDFGSASHVSKAVCSTYLQSRYYRAPEIILGLPFCEAIDMWSLGCVIAELFLGWPLYPGASEYDQIRYISQTQGLPAEYLLSAGTKTTRFFNRDPNLGYPLWRLKTPEEHELETGIKSKEARKYIFNCLDDMAQVNMSTDLEGTDMLAEKADRREYIDLLKKMLTIDADKRITPLKTLNHQFVTMSHLLDFPHSSHVKSCFQNMEICKRRVHMYDTVSQIKSPFTTHVAPNTSTNLTMSFSNQLNTVHNQASVLASSSTAAAATLSLANSDVSLLNYQSALYPSSAAPVPGVAQQGVSLQPGTTQICTQTDPFQQTFIVCPPAFQTGLQATTKHSGFPVRMDNAVPIVPQAPAAQPLQIQSGVLTQGSCTPLMVATLHPQVATITPQYAVPFTLSCAAGRPALVEQTAAVLQAWPGGTQQILLPSAWQQLPGVALHNSVQPAAVIPEAMGSSQQLADWRNAHSHGNQYSTIMQQPSLLTNHVTLATAQPLNVGVAHVVRQQQSSSLPSKKNKQSAPVSSKSSLEVLPSQVYSLVGSSPLRTTSSYNSLVPVQDQHQPIIIPDTPSPPVSVITIRSDTDEEEDNKYKPNSSSLKARSNVISYVTVNDSPDSDSSLSSPHPTDTLSALRGNSGTLLEGPGRPAADGIGTRTIIVPPLKTQLGDCTVATQASGLLSSKTKPVASVSGQSSGCCITPTGYRAQRGGASAVQPLNLSQNQQSSSASTSQERSSNPAPRRQQAFVAPLSQAPYAFQHGSPLHSTGHPHLAPAPAHLPSQPHLYTYAAPTSAAALGSTSSIAHLFSPQGSSRHAAAYTTHPSTLVHQVPVSVGPSLLTSASVAPAQYQHQFATQSYIGSSRGSTIYTGYPLSPTKISQYSYL

Variants of: B1
Conditions: with daxx_human DAXX

effect of a mutation on the interaction	Variant
decreasing interaction	K219A

Variants of: B1
Conditions: with daxx_mouse Daxx

effect of a mutation on the interaction	Variant
decreasing interaction	K219A
